Source: patent US20160201045A1, “Endo-xylanase and Coding Gene and Use Thereof” (SHANGHAI INSTITUTES FOR BIOLOGICAL SCIENCES CHINESE ACADEMY …, priority 2013, published 2016)
Values joined by “and” are separate entries in the source; they are usually repeats but may differ in a detail not shown here. Equal entries are not always repeated.

Experiments:
Format in all cases: biochemical
[1] = Detection on pH tolerance; details: pH 6.5, 7.0 or 7.5, 50° C., 45 min; % of the highest activity
Procedure: (§1) In a 100 μl reaction system, birch xylan was added to a final concentration of 1% (w/w), and Na2HPO4/NaH2PO4 buffer (pH7.0) was added to a final concentration of 100 mM. A suitable amount of enzyme solution diluted by the abovementioned buffer was added to the reaction system for reaction at 50[…] for 10 minutes. 100 μl DNS were added to stop the reaction. For the control, 100 μl DNS were firstly added to the above reaction system before adding the enzyme solution. The reaction mixtures were subjected to a boiled water bath for 5 minutes to develop color. Absorbance value at 540 nm was detected by a microplate reader. After subtracting the absorbance value of the control from that of the sample, the enzymatic activity unit (U) was calculated based on the standard curve.
The enzyme solution was kept in buffers of different pH values (6.5, 7.0 and 7.5) or at pH 7.0 with addition of 70 mM mercaptoethanol at 50° C. for different times (15 min, 30 min, 45 min, 60 min, 75 min). Enzymatic activity was tested according to the above standard enzymatic activity detection steps (enzymatic activity was tested after reacting at pH7.0, 50° C. for 10 minutes). The specific activity value of Xyl7 obtained after storing at pH7.0, 50° C. for 0 minute and reacting at 50° C. for 10 minutes was used as a reference value, and its relative activity was defined as 100%. […]

[2] = Screening of mutant clones for improved thermal stability (96-well, heat treatment, DNS); details: 52.5° C. water bath for two hours
Procedure: Transformants were picked up by sterile toothpick to a LB liquid culture containing antibiotic and IPTG (in a final concentration of 1 mM) contained within the wells of a 96-well plate and cultured overnight at 37° C. and 200 rpm. Thallus was collected by centrifugation. 100 ul buffers having the optimum reaction pH were added to re-suspend the thallus. Clone from each well was divided into a control group and a treatment group, with 50 ul for each well. The control group was stored at 4° C. The treatment group was treated in a water bath having a suitable temperature for 2 hours. After adding 2% xylan to each well, the mixture was allowed to react under 37° C. for 1 hour. Enzymatic activity was detected according to the DNS method. After treatment, the treatment group of the wild type clone retained an enzymatic activity which was about 10˜20% of its control group. […] The thermal stability of finally obtained mutants was tested according to the method described in Example 3. The overnight thallus was re-suspended and divided into two groups, which were the control and treatment groups, respectively. […] Then the enzymatic activity was detected. The residual enzymatic activity of the treatment group was calculated as a percentage of the enzymatic activity of the treatment group in relative to that of the control group. […]

[3] = Specific activity of the xylanase on beech xylan (DNS method); details: pH7.0, 50° C., 10 minutes
Procedure: Enzymatic activity of the endo-1,4-β-xylanase was tested by a DNS method as follows:
10 g NaOH were weighed and dissolved in about 400 ml ddH2O. 10 g dinitrosalicylic acid, 2 g phenol, 0.5 g anhydrous sodium sulfite and 200 g potassium sodium tartrate tetrahydrate were weighed and dissolved in about 300 ml ddH2O. The two solutions were mixed, diluted to 1 liter and preserved in dark.
100 μl DNS were added into each of the above standard samples. The mixtures were subjected to boiled water bath for 5 minutes for developing color. Absorbance value at 540 nm was detected by a microplate reader. Standard sample 1 was a blank control. The absorbance value of the blank control was subtracted from that of each sample and then the standard curve was plotted.
as §1, with “For the control, 100 μl DNS were firstly added to the above reaction system before adding the enzyme solution. The reaction mixtures were subjected to a boiled water bath for 5 minutes to develop color.” left out, “curve. […]” for “curve.”

[4] = Detection on the optimum temperature
Procedure: as §1
Enzymatic activity was detected according the above standard enzymatic activity detection steps at pH 7.0 and a temperature in the range of 25-80° C. The optimum temperature of Xyl7 was in the range of 50-55° C., with an activity at 50[…] slightly higher than that at 55[…]. Thus, the specific activity value of the enzyme at 50[…] was used as a reference value and its relative activity was defined as 100%. The relative activity of the enzyme at each temperature was a ratio between the specific activity value of the enzyme at each temperature and the reference value.

B1: Xyl7: endo-1,4-β-xylanase of 505 amino acids, SEQ ID NO:2, from termite gut metagenome, expressed in E. coli with His tag (protein)
chain: MKKLIALSFIAAFFAPLFAQGPTWTTSTIQAYNGYDYELWNQNNAGTVSMKLTGDNGSGASAVGGTFTATWSNTQNVLFRSGKKWGSSSNQNHTQIGNMSINFAATWSSTDNVKMLGVYGWAYFTSANVPTKQENGTNASFSNQIEYYIIQDRGSYNPASGGTNAKKYGSATIDGIAYDFYVCDRINQPMLTGNGNFKQFFSVPQSASAHRTSGTISVSQHFNKWHELGMKMDGPLYEVAMKVESYTGSGSSNGSATVTKNLLTIGGTTPTPSSNSGGTTSSSSRASSSSRASSSSNAAVQATTCKTPLITYPTSTVPSDPYTACFKYTDDKCYVCKVENEGEFEGNMNTCGSGWVWDGTQIDNNLRDGYWYQEVPCPAGSSSSRSSSSSVAVSSSSRSSSSSVAASSSSRSSSSSASVSSSSEETPIRVLHTIPSKFRVRSLNNGALQIESNADVVLYLYDTKGKMAQKIEAPTGSSIVKLSVPAGIYIVRNVQTKEKLRVMVR
modifications: His tag; Intestinal tract metagenome of termite
retained activity after storing in buffer [1]: ≥ 50%
enzymatic activity of the treatment group as % of the control group [2]: 10˜20%
Specific Activity on beech xylan [3]: 6340 U/mg and 6340 ± 48 U/mg
Specific Activity on beech xylan ([3]; listed as xylanase of the present disclosure): higher than 6340 U/mg
optimum temperature ([4]; pH 7.0, 25-80° C. tested): 50-55 °C
retained activity in the range of 30-60° C. ([4]; pH 7.0, % of the highest activity (50)): ≥ 50%
